In patent US10577406B2, “FKBP-L polypeptides and uses in angiogenesis-mediated disorders” (ALMAC DISCOVERY LIMITED, priority 2006, dated 2020):
Where two headings read alike, the source gives them in different places.

Key:
[1] = tested on: bFGF-induced vessels in subcutaneously implanted polyether sponges; assay: mouse sponge assay of angiogenesis in vivo; set-up: species or system C57 black mice; conditions: for reduction in vessel number versus bFGF alone: day 21
Method: In these experiments, polyether sponges were subcutaneously implanted in C57 black mice and injected on alternate days with 10 ng bovine fibroblast growth factor (bFGF) or 10 ng bFGF+5 μg full length His-tagged recombinant FKBP-L polypeptide (SEQ ID NO: 1). After 14 days of treatment, sponges were harvested, sectioned and stained with heamatoxylin and eosin.
This experiment evalulated the ability of the FKBP-L 24mer to inhibit angiogenesis using the mouse sponge assay. Polyether sponges were subcutaneously implanted in C57 black mice on day 0 and injected on alternate days with (a) 10 ng bFGF control (3 mice) (b) 10 ng bovine fibroblast growth factor (bFGF)+5 μg full-length his-tagged recombinant FKBPL (equivalent to 3.2×10^−6 M in vitro) (3 mice) (c) 10 ng bFGF+0.35 μg FKBPL 24mer (molar equivalent of 5 μg full-length recombinant FKBPL) (3 mice) or (d) 0.11 ng FKBPL 24mer (equivalent to 10^−9 M in vitro) (3 mice).
All mice were sacrificed on day 21. Sponges were removed, fixed and paraffin embedded. Five micron sections were stained with haematoxylin and eosin. Vessels were blindly counted by 3 independent assessors using ×40 magnification in 10 fields per section. The average count per sponge/mouse was then plotted for each assessor.

HMEC-1 = type: cell-based, Human
Method: (§1) The in vitro tubule formation assay used in these studies is a modified version of the method described by Ashton et al (1999). In brief, assays were conducted using BD BioCoat™ Matrigel™ Matrix Thin Layer 24-well Multiwell Plates (BD Discovery Labware, Oxford, UK). The Matrigel™ was rehydrated with 500 μl MCDB-131 serum free medium and incubated at 37° C. for 30 minutes. Excess medium was removed and HMEC-1 were seeded at a density of 1×10^5 and the plates incubated at 37° C. under 5% CO2/95% air for 1 hour.
(§2) Increasing concentrations of the recombinant FKBP-L protein (SEQ ID NO: 1) were added to each individual well in triplicate (250-1000 ngml^−1) and the plate was incubated for a further 18 hours. The degree of tubule formation between adjacent HMEC-1 cells was assessed in each well in five fields of view, by counting the number of cell to cell contacts between different HMEC-1 cells in the designated area. An independent investigator assessed each well and the FKBP-L treated wells were compared to sham treated controls.
as §1, with “al.” for “al”, “min.” for “minutes.”, “h. Increasing concentrations of FKBP-L 24mer (SEQ ID NO: 10) and 1-57mer (SEQ ID NO: 6) from 10^−14-10^−6 M were used.” for “hour.”
as §2, with “The” for “Increasing concentrations of the recombinant FKBP-L protein (SEQ ID NO: 1) were added to each individual well in triplicate (250-1000 ngml^−1) and the”, “h.” for “hours.”

rat aortic ring = type: cell-based, Male Wistar rats
Method: Male Wistar rats were euthanised and the thoracic aorta was aseptically removed and sectioned into 1 cm thick rings. The rings were washed ten times in sterile medium to remove any bacteria and embedded into Matrigel on 24 well plates. The wells were supplemented with 2 ml of medium and increasing concentrations of full-length His-tagged recombinant FKBP-L protein (SEQ ID 1). The plate was incubated for 8 days and post incubation the Matrigel and rings were fixed in 4% PBS buffered paraformaldehyde and stored in PBS. The extent of vessel development was blindly assessed microscopically by an independent investigator and quantified using a calibrated eyepiece graticule (1 mm/100 μm graduation) at 20× magnification (Olympus BX 50). The extent of vessel length, maximum vessel length and number of vessels in each field of view was measured and compared to time matched sham controls and the percent (%) inhibition calculated. Male Wistar rats were euthanised and the thoracic aorta was aseptically removed and sectioned into 1 cm thick rings. The rings were washed ten times in sterile medium to remove any bacteria and embedded into Matrigel on 24 well plates. The wells were supplemented with 2 ml of medium and increasing concentrations of FKBP-L 24mer (SEQ ID NO: 10) and FKBP-L 1-57mer (SEQ ID NO: 6) and recombinant FKBP-L (SEQ ID NO:1). The plate was blindly assessed by an independent investigator and quantified using a calibrated eyepiece graticule (1 mm/100 μm graduation) at 20× magnification (Olympus BX 50). The extent of vessel length, maximum vessel length and number of vessels in each field of view was measured and compared to time matched sham controls and the % inhibition calculated. In order to determine whether the FKBP-L 24mer exerted a permanent or static effect on endothelial cell sprouting the rat aortic ring assay was used. Male Wistar rats were euthanised and the thoracic aorta was aseptically removed and sectioned into 1 cm thick rings. The rings were washed ten times in sterile medium to remove any bacteria and embedded into Matrigel on 24 well plates. The wells were supplemented with 2 ml of medium. The plates were incubated for up to 15 days. Each day the Matrigel rings were photographed and returned to their incubator. Two further experiments were carried out: (A) addition of FKBP-L 24mer to the medium after the vessels had grown for seven days; and (B) addition of FKBP-L 24mer to the medium at the initial embedding stage, with subsequent removal after seven days and replacement with fresh medium for a further seven days. The extent of vessel development was quantified using a calibrated eyepiece graticule (1 mm/100 μm graduation) at 20× magnification (Olympus BX 50), and measured electronically using Lucia imaging software. Vessel length was measured and compared to time matched sham controls and the percent (%) inhibition calculated.

| Molecule | reduction in vessel number versus bFGF alone ([1]; 10 ng bFGF + 0.35 μg on alternate days) [%] | reduction in vessel number versus bFGF alone ([1]; lowest dose (0.11 ng, equivalent to 10^−9 M in vitro) on alternate days) [%] | EC50 (HMEC-1; 18 h) [nM] | IC50 (rat aortic ring) [nM] | vessel development after addition at day seven (rat aortic ring; 10^−9 M added after vessels had developed for seven days, vs time matched controls) | vessel development, exposure from initial embedding (rat aortic ring; medium supplemented from embedding, seven days) | vessel development after removal of the peptide (rat aortic ring; supplemented medium removed after seven days, fresh medium added) | reduction in vessel number versus bFGF alone ([1]; 10 ng bFGF + 5 μg on alternate days) [%] | vessel counts versus bFGF alone ([1]; 10 ng bFGF+5 μg on alternate days, 14 days, p=0.0008) | optimum concentration for inhibition of cell to cell contacts or tubules (HMEC-1; 250-1000 ngml^−1, 18 hours) [ngml^−1] | efficacy (inhibition of cell to cell contacts) at optimum concentration (HMEC-1; 750 ngml^−1, 18 hours) [%] | EC50 potency, tube formation (HMEC-1; 18 hours) [ngml^−1] | inhibition of number of vessels formed (rat aortic ring; 500 ngml^−1 (optimal), 8 days) [%] | inhibition of maximum vessel length compared to time matched controls (rat aortic ring; 1000 ngml^−1, 8 days) [%] | inhibition of mean vessel length compared to time matched controls (rat aortic ring; 1000 ngml^−1, 8 days) [%] | IC50 (rat aortic ring; read-out: IC50, number of vessels) [nM] |
| --- | --- | --- | --- | --- | --- | --- | --- | --- | --- | --- | --- | --- | --- | --- | --- | --- |
| H-QIRQQPRDPPTETLELEVSPDPAS-OH [FKBP-L 24mer] | 80 | 70 | 0.03 | 0.0002 | complete inhibition of vessel development | almost completely inhibited vessel development | continued growth of vessels |  |  |  |  |  |  |  |  |  |
| full length recombinant FKBP-L: recombinant full length his-tagged FKBP-L protein (SEQ ID NO: 1) expressed in BL21 (DE3) (protein, listed as Homo sapiens, His tag) MRGSHHHHHHGMASMTGGQQMGRDLYDDDDKDRWGSMETPPVNTIGEKDTSQPQQEWEKNLRENLDSVIQIRQQPRDPPTETLELEVSPDPASQILEHTQGAEKLVAELEGDSHKSHGSTSQMPEALQASDLWYCPDGSFVKKIVIRGHGLDKPKLGSCCRVLALGFPFGSGPPEGWTELTMGVGPWREETWGELIEKCLESMCQGEEAELQLPGHTGPPVGLTLASFTQGRDSWELETSEKEALAREERARGTELFRAGNPEGAARCYGRALRLLLTLPPPGPPERTVLHANLAACQLLLGQPQLAAQSCDRVLEREPGHLKALYRRGVAQAALGNLEKATADLKKVLAIDPKNRAAQEELGKVVIQGKNQDAGLAQGLRKMFG |  |  |  |  |  |  |  | 50 | significantly fewer vessels | 750 | 80 | 314 | 65 | 70 | 63 | 1.56 |
